Data on one molecule can be found in publication PMC8794075 (Emerging Microbes & Infections, 2022).

One assay concerns the target SARS-CoV-2 NTD protein (SARS-CoV-2 Wuhan-Hu-1, UniProt P0DTC2). Briefly: ELISA. To be noted: both partners purified. (ELISA stands for enzyme-linked immunosorbent assay.)
For assay [1], the target named is SARS-CoV-2 RBD protein (wild type) (SARS-CoV-2, UniProt P0DTC2). Briefly: ELISA. As to conditions: both partners purified.

B1: MAb S3H3 (antibody, V domains shown)
VH: QVQLQQPGAELVRPGASVKLSCKASGYSFTRFWMNWVKQRPGQGLEWIGMIHPSDSETRLNQKFKDKATLTVDKSSTTAYMQLSSPTSEDSAVYYCARKDYDYDAWFAYWGQGTLVTVSA
VL: DIVLTQSPASLAVSLGQRATISCRASKSVSASVYSYMHWYQQKPGQPPKLLIYLASSLESGVPARFSGSGSGTDFTLNIHPVEEEDAATYYCHHSRELPPAFGGGTKLEIK
For B1, the binding result (in the assay with SARS-CoV-2 NTD protein; in assay [1]) was “no binding (tested: 100 ng/well)” in each case.
